Assay results reported in PMC11412978.

Target: USP22 (ubiquitin-specific protease 22) (UniProt Q9UPT9)
Assay: co-IP of myc-MYH9 and Flag-USP22
Details: reference: wild-type MYH9; sites S1943

Substance: MYH9 (non-muscle myosin heavy chain 9) (from UniProt P35579) MYH9-S1943A
- binding against the reference: lost
